Experimental data taken from paper PMC12101500, “Mechanism of D-type cyclin recognition by the AMBRA1 E3 ligase receptor” (Science Advances, 2025).
One block for each molecule: values may come before it. Where no end group is shown, it is not given here. [ ]: non-standard residue; d: D form. pT = C[C@@H](OP(=O)(O)O)[C@H](N)C(=O)O

Key:
[1] = target: DDB1-AMBRA1^WD40 complex (human) (UniProt Q9C0C7); experiment: ITC; peptide (100 μM) titrated into AMBRA1^WD40-DDB1 complex (10 μM); 25°C; 50 mM Hepes pH 7.4, 200 mM NaCl, 2 mM MgCl2, 1 mM TCEP; single-site binding model
[2] = target: DDB1-AMBRA1 WD40 (Homo sapiens, UniProt Q16531); experiment: ITC
[3] = target: T1, TSF–cyclin D1 (full-length) (human, UniProt P24385 1-295, phosphothreonine at 286 (found in the reconstituted complex by Western blotting and MS)); experiment: cryo-EM structure; DDB1–AMBRA1^WD40–cyclin D1–CDK4EE complex co-expressed in Expi293F and purified (MBP beads, TEV, Strep-tactin, Superdex 200); 0.3 mg/ml; 3.55 Å; settings: both partners purified
T1 construct: cyclin D1, human; also called Twin-Strep-FLAG–cyclin D1; source: Expi293F, co-transfected; in lysate (pull-downs) and purified in complexes (MBP or GST beads, TEV digestion, Strep-tactin, Superdex 200); not shown: Twin-Strep-FLAG (TSF), N-terminal, kept
T1 sequence (P24385 whole entry): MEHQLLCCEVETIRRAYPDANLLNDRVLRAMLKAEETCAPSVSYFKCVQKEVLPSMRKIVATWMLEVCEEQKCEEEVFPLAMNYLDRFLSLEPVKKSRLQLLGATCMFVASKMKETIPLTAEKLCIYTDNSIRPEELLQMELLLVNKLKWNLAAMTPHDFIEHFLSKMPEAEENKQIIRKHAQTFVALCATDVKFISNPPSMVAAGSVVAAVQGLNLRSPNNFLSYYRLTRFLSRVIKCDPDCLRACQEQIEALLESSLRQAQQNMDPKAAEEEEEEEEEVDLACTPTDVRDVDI

- Kd [1]: 0.21 µM
Molecule: T286-phosphorylated cyclin D1 peptide (residues 284 to 295)

- Kd [2]: ~0.2 µM
Molecule: Ac-AC[pT]PTDVRDVDI [cyclin D1 284-295]

- binding result [3]: binds
B1: AMBRA1^WD40 (residues M1 to N204 directly fused to S853 to G1044), MBP removed (domain or fragment, human, UniProt Q9C0C7 1-204, looked up)
chain: MKVVPEKNAVRILWGRERGARAMGAQRLLQELVEDKTRWMKWEGKRVELPDSPRSTFLLAFSPDRTLLASTHVNHNIYITEVKTGKCVHSLIGHRRTPWCVTFHPTISGLIASGCLDGEVRIWDLHGGSESWFTDSNNAIASLAFHPTAQLLLIATANEIHFWDWSRREPFAVVKTASEMERVRLVRFDPLGHYLLTAIVNPSNSNIANTTYRLQWWDFTKFDLPEISNASVNVLVQNCKIYNDASCDISADGQLLAAFIPSSQRGFPDEGILAVYSLAPHNLGEMLYTKRFGPNAISVSLSPMGRYVMVGLASRRILLHPSTEHMVAQVFRLQQAHGGETSMRRVFNVLYPMPADQRRHVSINSARWLPEPGLGLAYGTNKGDLVICRPEALNSG
notes: AMBRA1, human, residues M1 to N204, directly fused to S853; AMBRA1, human, residues S853 to G1044; Same construct as m5, after TEV digestion; the gene was codon optimized; also called AMBRA1 WD40 domain; AMBRA1^WD40 WT; source: Expi293F, co-expressed, purified in complex (MBP beads, TEV digestion, Strep-tactin and/or Superdex 200); not shown: MBP, N-terminal, cleaved
